Laboratory results as given in patent US10227617B2, “Sequestration of carbon dioxide with hydrogen to useful products” (UNIVERSITY OF GEORGIA RESEARCH FOUNDATION, INC., priority 2012, dated 2019).
≈ marks a conversion by molar mass, not a printed value.

Key:
O=C(O)CCCO = experiment: acyl-CoA ligase activity of mutant Msed_1353-G424, discontinuous DTNB assay; format: biochemical, Metallosphaera sedula; conditions: other: Msed_1353-G424, 75° C., pH 7.9
Excerpt: In one embodiment, an example of a polypeptide having 4-hydroxybutyrate:CoA ligase activity is an amino acid sequence encoded by coding sequence Msed_1353 of Genbank accession NC_009440 and disclosed at SEQ ID NO:18, provided that the amino acid at residue 424 is not the tryptophan present in a wild type Msed_1353. In one embodiment, the amino acid at residue 424 is alanine, valine, leucine, isoleucine, or glycine. In one embodiment, the amino acid at residue 424 is alanine, valine, leucine, glycine. In one embodiment, the amino acid at residue 424 is glycine. The amino acid sequence disclosed at SEQ ID NO:18 includes the substitution of glycine for tryptophan. Another example is a polypeptide having structural similarity to the amino acid sequence SEQ ID NO:18, provided the amino acid at residue 424 is not tryptophan.
Two assays were used to measure ligase activity, one spectrophotometric and one using high-performance liquid chromatography (HPLC). A discontinuous assay was used to measure substrate-dependent disappearance of CoA at 75° C. The reaction mixture (600 μl) contained 100 mM MOPS-KOH (pH 7.9), 5 mM MgCl2, 2.5 mM ATP, 0.15 mM CoA, and purified enzyme. At each time point, 80 μl of reaction mixture was added to 80 μl cold 5,5′-dithiobis-(2-nitrobenzoic acid) (DTNB). A time point (0 min) was taken before heating. The reaction mixture was incubated for 2 min at 75° C., followed by addition of substrate. Additional time points were taken at 30, 60, 90, 120, and 180 sec after addition of substrate. Absorbance was measured at 412 nm to determine free CoA concentration, based on the concentration of 2-nitro-5-thiobenzoate dianion (NTB^2−) (ε412=14,150 M^−1 cm^−1) (Hawkins et al., 2011, ACS Catal. 1, 1043-1050, Riddles et al., 1983, Methods in Enzymology 91, 49-60). Enzymes were kinetically characterized by varying the concentration of the […] substrate from 0.05 mM to 12 mM, while the other substrate concentrations were held constant. Measurements for specific activity were taken under saturating substrate concentrations (10 mM). Formation of the CoA ester was also confirmed using HPLC (Waters). The reaction mixture (0.15 ml) contained 100 mM potassium phosphate (pH 7.9), 10 mM MgCl2, 2 mM ATP, 0.5 mM CoA, 10 mM substrate, and purified enzyme. The reaction was incubated for 3 min at 75° C., quenched with 15 μl 1M HCl, filtered with a 10 kDa spin column (Amicon YM-10) to remove the protein, and loaded onto a reversed-phase C18 silica-based column (Shodex C18-4E, 4.6×250 mm). The mobile phase was 50 mM sodium phosphate buffer (pH 6.7) with 2% methanol.
M. sedula genes encoding acyl-CoA synthetases were amplified from genomic DNA using primers synthesized by Integrated DNA Technologies (Coralville, Iowa). […]

[1] = test system: CC(C)(COP(=O)(O)OP(=O)(O)OC[C@H]1O[C@@H](n2cnc3c(N)ncnc32)[C@H](O)[C@@H]1OP(=O)(O)O)[C@@H](O)C(=O)NCCC(=O)NCCSC(=O)CCCO; experiment: 4-hydroxybutyryl-CoA dehydratase (Msed_1321), coupled spectrophotometric assay; format: biochemical, Metallosphaera sedula; conditions: other: Msed_1321, 70° C.
Excerpt: A polypeptide having 4-hydroxybutyryl-CoA dehydratase activity means the polypeptide catalyzes the conversion of 4-hydroxybutyryl-CoA to crotonyl-CoA. The 4-hydroxybutyryl-CoA dehydratase activity of a polypeptide may be determined by routine methods known in the art. An example of such a polypeptide includes an amino acid sequence encoded by coding sequence Msed_1321 of Genbank accession NC_009440 and disclosed at SEQ ID NO:15.
Heterologous expression of M. sedula genes in E. coli. Msed_0406, Msed_1321, Msed_0399, and Msed_0656 were amplified from genomic DNA using primers from IDT Technologies (Coralville, Iowa). Msed_0406 was cloned into pET46-Ek/LIC with an N-terminal His6 tag, as described in Example 1. Msed_1321 was cloned with an N-terminal His6 tag into a modified pETA vector, into which the anaerobic hya promoter from E. coli had been inserted to allow for anaerobically-regulated expression (Sun et al., 2010. PLoS One 5:e10526). Msed_0399 was cloned into pET21b without a His-tag, and Msed_0656 was cloned into pCDF-Ek/LIC with an N-terminal His6 tag. All four constructs were individually cloned into NovaBlue GigaSingles E. coli competent cells and selected by growth on LB-agar supplemented with antibiotic. Sequences were confirmed by Eton Biosciences, Inc. (Durham, N.C.). Next, the plasmids were transformed into E. coli Rosetta 2 (DE3) cells for protein expression. Rosetta strains containing pET46-0406, pET21b-0399, and pCDF-0656 were grown and expressed aerobically at 37° C. for 16 h in Studier's auto-inducing medium ZYM-5052 (Studier, 2005. Protein Expression and Purification 41:207-234). Rosetta cells containing pETA-1321 plasmid were grown in a 2 L Applikon bioreactor (37° C., 800 rpm, pH 6.7, 0.5 slpm air) in Studier's non-inducing medium ZYM-505 with 0.5 mM FeCl3. […]
4-hydroxybutyryl-CoA dehydratase (Msed_1321). […] Enzyme activity was measured […] in a coupled spectrophotometric assay at 70° C. […]

[2] = 70° C and 1 atm; cited from earlier work
[3] = substrate: O=C(O)CCO; experiment: purified protein, by the assay type; conditions: other: Msed_0406, 75° C., pH 7.9; 75.0 °C
Method: (§1) Two assays were used to measure ligase activity, one spectrophotometric and one using high-performance liquid chromatography (HPLC). A discontinuous assay was used to measure substrate-dependent disappearance of CoA at 75° C. The reaction mixture (600 μl) contained 100 mM MOPS-KOH (pH 7.9), 5 mM MgCl2, 2.5 mM ATP, 0.15 mM CoA, and purified enzyme. At each time point, 80 μl of reaction mixture was added to 80 μl cold 5,5′-dithiobis-(2-nitrobenzoic acid) (DTNB). A time point (0 min) was taken before heating. The reaction mixture was incubated for 2 min at 75° C., followed by addition of substrate. Additional time points were taken at 30, 60, 90, 120, and 180 sec after addition of substrate. Absorbance was measured at 412 nm to determine free CoA concentration, based on the concentration of 2-nitro-5-thiobenzoate dianion (NTB^2−) (ε412=14,150 M^−1 cm^−1) (Hawkins et al., 2011, ACS Catal. 1, 1043-1050, Riddles et al., 1983, Methods in Enzymology 91, 49-60). Enzymes were kinetically characterized by varying the concentration of the acyl-CoA substrate from 0.05 mM to 12 mM, while the other substrate concentrations were held constant. Measurements for specific activity were taken under saturating substrate concentrations (10 mM). Formation of the CoA ester was also confirmed using HPLC (Waters). The reaction mixture (0.15 ml) contained 100 mM potassium phosphate (pH 7.9), 10 mM MgCl2, 2 mM ATP, 0.5 mM CoA, 10 mM substrate, and purified enzyme. The reaction was incubated for 3 min at 75° C., quenched with 15 μl 1M HCl, filtered with a 10 kDa spin column (Amicon YM-10) to remove the protein, and loaded onto a reversed-phase C18 silica-based column (Shodex C18-4E, 4.6×250 mm). The mobile phase was 50 mM sodium phosphate buffer (pH 6.7) with 2% methanol.

[4] = substrate: CCCCC(=O)O; experiment: purified protein, by the assay type; conditions: other: Msed_0406, 75° C., pH 7.9; 75.0 °C
[5] = substrate: CCCC(=O)O; experiment: purified protein, by the assay type; conditions: other: Msed_0406, 75° C., pH 7.9; 75.0 °C
Method: as §1

[6] = substrate: CC(=O)O; experiment: purified protein, by the assay type; conditions: other: Msed_0406, 75° C., pH 7.9; 75.0 °C
[7] = substrate: O=C(O)CCCO; experiment: purified protein, by the assay type
Method: as §1

[8] = substrate: CCC(=O)O; experiment: purified protein, by the assay type; conditions: other: Msed_0406, 75° C., pH 7.9; 75.0 °C
[9] = CoA synthetase assay (DTNB), substrate propionate; format: biochemical; conditions: saturating substrate concentrations
Method: Two assays were used to measure ligase activity, one spectrophotometric and one using high-performance liquid chromatography (HPLC). A discontinuous assay was used to measure substrate-dependent disappearance of CoA at 75° C. The reaction mixture (600 μl) contained 100 mM MOPS-KOH (pH 7.9), 5 mM MgCl2, 2.5 mM ATP, 0.15 mM CoA, and purified enzyme. At each time point, 80 μl of reaction mixture was added to 80 μl cold 5,5′-dithiobis-(2-nitrobenzoic acid) (DTNB). A time point (0 min) was taken before heating. The reaction mixture was incubated for 2 min at 75° C., followed by addition of substrate. Additional time points were taken at 30, 60, 90, 120, and 180 sec after addition of substrate. Absorbance was measured at 412 nm to determine free CoA concentration, based on the concentration of 2-nitro-5-thiobenzoate dianion (NTB^2−) (ε412=14,150 M^−1 cm^−1) (Hawkins et al., 2011, ACS Catal. 1, 1043-1050, Riddles et al., 1983, Methods in Enzymology 91, 49-60). Enzymes were kinetically characterized by varying the concentration of the acyl-CoA substrate from 0.05 mM to 12 mM, while the other substrate concentrations were held constant. Measurements for specific activity were taken under saturating substrate concentrations (10 mM). Formation of the CoA ester was also confirmed using HPLC (Waters). […]

[10] = 4-hydroxybutyrate-CoA synthetase assay (DTNB; HPLC confirmation); format: biochemical
Method: A time point (0 min) was taken before heating.
The soluble, heat-treated lysate was loaded onto the column with binding buffer (50 mM sodium phosphate, 300 mM NaCl, 20 mM imidazole, pH 7.4) and the his-tagged enzyme removed with elution buffer (50 mM sodium phosphate, 300 mM NaCl, 500 mM imidazole, pH 7.4).

[11] = other: Msed_0406, 75° C., pH 7.9, 75.0 °C

Metallosphaera sedula acetate/propionate synthetase Msed_1353 variant Msed_1353-G424 (Trp424 to Gly, W424G), SEQ ID NO:18 (Metallosphaera sedula DSM 5348; W424G)
Km (O=C(O)CCCO): 1130 µM
Vmax (O=C(O)CCCO): 2.3 µmol/min/mg
kcat (O=C(O)CCCO): 2.5 s⁻¹
kcat/Km (O=C(O)CCCO): 2180 M⁻¹ s⁻¹

Metallosphaera sedula 4-hydroxybutyryl-CoA dehydratase Msed_1321, SEQ ID NO:15, recombinant (Metallosphaera sedula DSM 5348)
Km [1]: 150 µM
Vmax [1]: 2.2 µmol/min/mg
kcat [1]: 2.1 s⁻¹

O=O [oxygen]
solubility [2]: 600 µM (≈ 19.2 µg/mL)

[HH] [hydrogen]
solubility [2]: 600 µM (≈ 1.21 µg/mL)

B1: Metallosphaera sedula acyl-CoA synthetase (4-hydroxybutyrate:CoA ligase) Msed_0406, SEQ ID NO:14, recombinant (Metallosphaera sedula DSM 5348) (protein)
chain: MVTVQDFFRKFIEFQNSPNEKSLQEIVKLVGQLDLRRFNWVRDVFEDIHVKERGSKTALIWRDINTGEEAKLSYHELSLMSNRVLSTLRKHGLKKGDVVYLMTKVHPMHWAVFLAVIKGGFVMVPSATNLTVAEMKYRFSDLKPSAIISDSLRASVMEEALGSLKVEKFLIDGKRETWNSLEDESSNAEPEDTRGEDVIINYFTSGTTGMPKRVIHTAVSYPVGSITTASIVGVRESDLHLNLSATGWAKFAWSSFFSPLLVGATVVGINYEGKLDTRRYLGEVENLGVTSFCAPPTAWRQFITLDLDQFRFERLRSVVSAGEPLNPEVIKIWKDKFNLTIRDFYGQTETTAMVGNFPFLKVKPGSMGKPHPLYDIRLLDDEGKEITKPYEVGHITVKLNPRPIGLFLGYSDEKKNMESFREGYYYTGDKAYFDEEGYFYFVGRGDDVIKTSDYRVGPFEVESALLEHPAVAEAAVVGVPDTVRWQLVKAYIVLKKGYMPSKELAEEIREKMKTLLSPYKVPRIIEFVDELPKTISGKIRRVELRKREEEKRKKGEVGQNEYVF
Km [3]: 810 µM
Vmax [3]: 2.4 µmol/min/mg
kcat [3]: 2.6 s⁻¹
kcat/Km [3]: 3200 M⁻¹ s⁻¹
Km [4]: 740 µM
Vmax [4]: 5.2 µmol/min/mg
kcat [4]: 5.6 s⁻¹
kcat/Km [4]: 7500 M⁻¹ s⁻¹
Km [5]: 320 µM
Vmax [5]: 7.9 µmol/min/mg
kcat [5]: 8.4 s⁻¹
kcat/Km [5]: 26000 M⁻¹ s⁻¹
Km [6]: 2030 µM
Vmax [6]: 6 µmol/min/mg
kcat [6]: 6.4 s⁻¹
kcat/Km [6]: 3200 M⁻¹ s⁻¹
Km [7, 11]: 2000 µM
Vmax [7, 11]: 1.7 µmol/min/mg
kcat [7, 11]: 1.8 s⁻¹
kcat/Km [7, 11]: 910 M⁻¹ s⁻¹
Km ([7]; other: Msed_0406, text): 1900 µM
Km [8]: 380 µM
Vmax [8]: 15.1 µmol/min/mg
kcat [8]: 16.2 s⁻¹
kcat/Km [8]: 43000 M⁻¹ s⁻¹
specific activity [9]: 15.1 µmol/min/mg
specific activity ([10]; 4HB, saturating substrate concentrations): 1.8 µmol/min/mg
production of 4HB-CoA from 4HB and CoA ([10]; reversed-phase HPLC): confirmed
rate of ligation of CoA to 4HB ([10]; substrate 4HB): 1.69 µmol·min/mg
